Assay results taken from publication PMC4499870.
Values belong to the substance of their own block, whether it stands above or below them.

Columns and labels:
[1] = molecular target: CytERM-EBFP2 (Aequorea victoria)
[2] = molecular target: CytERM-moxBFP (Aequorea victoria)

% cells with OSER structures (CytERM assay, n=138 cells) [1]: 63.7%
Substance: CytERM-EBFP2

% cells with OSER structures (CytERM assay, n=69 cells) (CytERM-mTagBFP): 43.5%
Substance: CytERM-mTagBFP

% cells with OSER structures (CytERM assay, n=109 cells) [2]: 0.9%
Substance: CytERM-moxBFP
